The results in this text go back to article PMC12604781 (PLOS Pathogens, 2025).

This assay has as its target SUMO-PRV peptide AB (pseudorabies virus (PRV)). Description: ITC.

The Kd is the free concentration of one partner at which half of the binding sites on the other are occupied at equilibrium, for simple one-to-one binding. Read a low Kd as tighter binding.

For “pcGAS^CT (C-terminus, catalytic domain of porcine cGAS) (domain or fragment)”, the Kd was 2920 nM.
